Patent US20200262877A1, “ION CHANNEL-BINDING PEPTIDES AND METHODS OF USE THEREOF” (priority 2017, published 2020)

Columns and labels:
5HT3a = target: T1, 5HT3a (Homo sapiens, UniProt P46098); test: Ion channel panel (IonWorks Barracuda): 5HT3a; assay type: cell-based
T1 construct: host or cells: HEK293 or CHO
T1 sequence (P46098 whole entry, looked up): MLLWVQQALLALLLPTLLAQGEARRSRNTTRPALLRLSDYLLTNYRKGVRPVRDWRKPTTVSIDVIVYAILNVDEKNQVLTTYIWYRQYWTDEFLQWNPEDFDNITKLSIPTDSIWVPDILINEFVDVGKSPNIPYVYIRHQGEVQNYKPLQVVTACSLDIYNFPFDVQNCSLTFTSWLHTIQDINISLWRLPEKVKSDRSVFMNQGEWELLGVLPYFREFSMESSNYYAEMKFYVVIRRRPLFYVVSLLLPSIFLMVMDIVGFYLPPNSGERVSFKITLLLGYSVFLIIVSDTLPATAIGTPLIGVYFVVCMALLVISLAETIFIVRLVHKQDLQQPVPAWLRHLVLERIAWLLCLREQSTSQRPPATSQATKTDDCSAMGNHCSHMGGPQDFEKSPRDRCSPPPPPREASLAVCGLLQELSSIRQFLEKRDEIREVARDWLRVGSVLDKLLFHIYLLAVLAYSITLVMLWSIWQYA
Procedure, shortened: (§1)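 Peptides were tested in duplicate at final 20 μM and 200 nM, with concentration set by amino acid analysis, in HEPES-buffered saline. They were applied for at least 5 min to HEK293 or CHO cells transfected with each channel. Currents were expressed as % inhibition, 1-(Ipeptide/Icontrol)×100, or % activation, Ipeptide/Icontrol×100, against a channel-matched reference compound.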

α3β4 = target: T2, α3β4 (Homo sapiens, UniProt P30926+P32297); test: Ion channel panel (IonWorks Barracuda): α3β4; assay type: cell-based; conditions: 100% = no change, <100% = inhibition
T2 construct: host or cells: HEK293 or CHO
Procedure, shortened: as §1

α4β2 = target: T3, α4β2 (Homo sapiens, UniProt P17787+P43681); test: Ion channel panel (IonWorks Barracuda): α4β2; assay type: cell-based; conditions: 100% = no change, <100% = inhibition
T3 construct: host or cells: HEK293 or CHO
Procedure, shortened: as §1

Cav2.1 = target: T4, Cav2.1 (Homo sapiens, UniProt O00555); test: cell-based; conditions: 100% = no change, <100% = inhibition
T4 construct: host or cells: HEK293 or CHO
Procedure, shortened: as §1

Cav2.2 = target: T5, Cav2.2 (Homo sapiens, UniProt Q00975); test: cell-based; conditions: 100% = no change, <100% = inhibition
T5 construct: host or cells: HEK293 or CHO
Procedure, shortened: as §1

Kv2.1 = target: T6, Kv2.1 (Homo sapiens, UniProt Q14721); test: cell-based; conditions: 100% = no change, <100% = inhibition
T6 construct: host or cells: HEK293 or CHO
Procedure, shortened: as §1

GABA = test: Ion channel panel (IonWorks Barracuda): GABA; assay type: cell-based; conditions: 100% = no change, <100% = inhibition
Procedure, shortened: as §1

Nav1.5 = Nav1.5 (Homo sapiens, UniProt Q14524); test: in vitro; conditions: 100% = no change; for Activity of Nav1.5 with peptide, expressed as a percentage of the reference compound: peptide at 0.2 μM; for Activity of Nav1.5 with peptide (percentage of the reference compound): peptide at 20 μM
Chain of Nav1.5 (Q14524 whole entry): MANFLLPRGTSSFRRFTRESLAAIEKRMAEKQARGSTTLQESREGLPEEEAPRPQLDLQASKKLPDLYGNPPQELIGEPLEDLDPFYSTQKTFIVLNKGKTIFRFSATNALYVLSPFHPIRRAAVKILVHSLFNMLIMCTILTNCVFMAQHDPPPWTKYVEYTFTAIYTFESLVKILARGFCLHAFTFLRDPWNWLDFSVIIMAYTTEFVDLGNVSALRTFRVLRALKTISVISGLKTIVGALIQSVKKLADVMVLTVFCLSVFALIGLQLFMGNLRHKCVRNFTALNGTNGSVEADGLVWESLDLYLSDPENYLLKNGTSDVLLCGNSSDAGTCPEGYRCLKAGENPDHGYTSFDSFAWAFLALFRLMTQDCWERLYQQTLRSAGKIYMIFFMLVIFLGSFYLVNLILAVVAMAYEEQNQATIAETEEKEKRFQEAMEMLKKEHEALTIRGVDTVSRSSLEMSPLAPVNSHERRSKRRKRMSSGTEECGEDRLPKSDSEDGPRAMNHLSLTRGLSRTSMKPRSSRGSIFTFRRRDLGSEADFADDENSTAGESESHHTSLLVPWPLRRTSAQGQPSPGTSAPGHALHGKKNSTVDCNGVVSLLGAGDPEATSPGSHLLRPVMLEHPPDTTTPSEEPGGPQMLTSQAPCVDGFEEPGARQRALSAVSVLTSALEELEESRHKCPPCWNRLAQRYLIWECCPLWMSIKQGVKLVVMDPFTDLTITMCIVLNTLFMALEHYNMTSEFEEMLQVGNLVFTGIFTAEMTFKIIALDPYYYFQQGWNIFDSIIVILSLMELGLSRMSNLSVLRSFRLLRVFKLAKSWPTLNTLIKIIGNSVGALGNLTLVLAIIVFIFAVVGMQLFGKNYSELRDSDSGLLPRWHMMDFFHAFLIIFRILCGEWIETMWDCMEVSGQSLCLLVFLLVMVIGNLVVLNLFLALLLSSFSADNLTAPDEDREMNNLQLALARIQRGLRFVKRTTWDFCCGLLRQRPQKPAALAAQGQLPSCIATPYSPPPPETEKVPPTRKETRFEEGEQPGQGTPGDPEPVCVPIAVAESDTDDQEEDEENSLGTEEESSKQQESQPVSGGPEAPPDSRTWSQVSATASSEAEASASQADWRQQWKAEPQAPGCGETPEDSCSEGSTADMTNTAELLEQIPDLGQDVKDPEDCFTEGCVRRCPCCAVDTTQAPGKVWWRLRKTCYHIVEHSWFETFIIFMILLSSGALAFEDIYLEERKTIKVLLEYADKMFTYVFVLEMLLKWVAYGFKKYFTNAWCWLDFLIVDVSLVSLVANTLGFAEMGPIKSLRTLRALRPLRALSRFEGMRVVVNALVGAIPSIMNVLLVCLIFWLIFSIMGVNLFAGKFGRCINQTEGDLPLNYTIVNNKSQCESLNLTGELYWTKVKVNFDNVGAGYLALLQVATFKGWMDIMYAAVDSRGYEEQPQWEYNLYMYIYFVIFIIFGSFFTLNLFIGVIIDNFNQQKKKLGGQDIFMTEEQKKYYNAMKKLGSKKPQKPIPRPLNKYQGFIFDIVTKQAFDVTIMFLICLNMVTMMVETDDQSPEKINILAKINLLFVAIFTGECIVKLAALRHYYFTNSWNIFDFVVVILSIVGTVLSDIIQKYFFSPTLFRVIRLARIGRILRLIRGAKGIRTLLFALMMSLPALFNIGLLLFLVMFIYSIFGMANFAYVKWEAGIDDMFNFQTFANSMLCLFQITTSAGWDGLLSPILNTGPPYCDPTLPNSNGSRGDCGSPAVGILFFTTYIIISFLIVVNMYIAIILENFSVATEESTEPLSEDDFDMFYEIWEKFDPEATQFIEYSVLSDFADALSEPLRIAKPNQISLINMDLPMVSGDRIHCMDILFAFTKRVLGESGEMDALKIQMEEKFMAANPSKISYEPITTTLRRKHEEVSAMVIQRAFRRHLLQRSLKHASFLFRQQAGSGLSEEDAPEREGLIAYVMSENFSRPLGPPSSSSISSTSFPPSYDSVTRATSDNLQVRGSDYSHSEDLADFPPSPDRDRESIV
Procedure, shortened: as §1

hERG = hERG (Homo sapiens, UniProt Q12809); test: in vitro; conditions: 100% = no change, <100% = inhibition
Procedure, shortened: as §1

Kir2.1 = target: T7, Kir2.1 (Homo sapiens, UniProt P63252); test: Ion channel panel (IonWorks Barracuda): Kir2.1; assay type: cell-based; conditions: 100% = no change, <100% = inhibition
T7 construct: host or cells: HEK293 or CHO
Procedure, shortened: as §1

Kv1.1 = target: T8, Kv1.1 (Homo sapiens, UniProt Q09470); test: cell-based; assay type: cell-based; conditions: 100% = no change, <100% = inhibition
T8 construct: host or cells: HEK293 or CHO
Procedure, shortened: as §1

Kv1.2 = target: T9, Kv1.2 (Homo sapiens, UniProt P16389); test: cell-based; assay type: cell-based; conditions: 100% = no change, <100% = inhibition
T9 construct: host or cells: HEK293 or CHO
T9 sequence (P16389 whole entry): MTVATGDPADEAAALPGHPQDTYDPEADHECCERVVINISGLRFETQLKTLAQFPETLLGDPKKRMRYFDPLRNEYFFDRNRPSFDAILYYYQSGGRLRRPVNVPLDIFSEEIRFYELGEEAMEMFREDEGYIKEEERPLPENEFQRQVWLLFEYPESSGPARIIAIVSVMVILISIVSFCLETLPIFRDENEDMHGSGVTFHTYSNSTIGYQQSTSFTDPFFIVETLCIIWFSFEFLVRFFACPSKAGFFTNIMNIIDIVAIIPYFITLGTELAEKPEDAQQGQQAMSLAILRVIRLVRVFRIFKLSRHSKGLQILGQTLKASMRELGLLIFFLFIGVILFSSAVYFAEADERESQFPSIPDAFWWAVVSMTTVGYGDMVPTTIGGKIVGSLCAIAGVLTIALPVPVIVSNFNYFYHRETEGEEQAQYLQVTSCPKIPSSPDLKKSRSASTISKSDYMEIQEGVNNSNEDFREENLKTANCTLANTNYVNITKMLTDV
Procedure, shortened: as §1

Kv1.3 = target: T10, Kv1.3 (Homo sapiens, UniProt P22001); test: cell-based; assay type: cell-based; conditions: 100% = no change, <100% = inhibition
T10 construct: host or cells: HEK293 or CHO
T10 sequence (P22001 whole entry): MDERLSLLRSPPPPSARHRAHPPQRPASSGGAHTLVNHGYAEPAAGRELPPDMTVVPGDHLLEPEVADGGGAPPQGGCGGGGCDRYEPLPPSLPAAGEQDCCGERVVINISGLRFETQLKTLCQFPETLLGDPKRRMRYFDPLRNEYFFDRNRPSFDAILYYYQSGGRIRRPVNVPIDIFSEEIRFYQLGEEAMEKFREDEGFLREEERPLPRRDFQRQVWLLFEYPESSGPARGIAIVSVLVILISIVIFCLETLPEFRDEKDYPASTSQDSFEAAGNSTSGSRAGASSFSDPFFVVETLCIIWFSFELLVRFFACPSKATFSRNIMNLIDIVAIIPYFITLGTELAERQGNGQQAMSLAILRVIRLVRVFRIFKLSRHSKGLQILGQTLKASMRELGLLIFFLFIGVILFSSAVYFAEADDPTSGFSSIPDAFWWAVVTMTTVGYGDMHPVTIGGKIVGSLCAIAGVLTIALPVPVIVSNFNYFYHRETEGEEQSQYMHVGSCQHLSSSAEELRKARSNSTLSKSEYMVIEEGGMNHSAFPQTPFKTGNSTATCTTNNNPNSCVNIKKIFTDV
Procedure, shortened: as §1

Nav1.7 = target: T11, Nav1.7 (Homo sapiens, UniProt Q15858); test: cell-based; assay type: cell-based; conditions: 100% = no change; for Activity of Nav1.7 with peptide, expressed as a percentage of the reference compound: peptide at 0.2 μM; for Activity of Nav1.7 with peptide (percentage of the reference compound): peptide at 20 μM
T11 construct: host or cells: HEK293 or CHO
T11 sequence (Q15858 whole entry): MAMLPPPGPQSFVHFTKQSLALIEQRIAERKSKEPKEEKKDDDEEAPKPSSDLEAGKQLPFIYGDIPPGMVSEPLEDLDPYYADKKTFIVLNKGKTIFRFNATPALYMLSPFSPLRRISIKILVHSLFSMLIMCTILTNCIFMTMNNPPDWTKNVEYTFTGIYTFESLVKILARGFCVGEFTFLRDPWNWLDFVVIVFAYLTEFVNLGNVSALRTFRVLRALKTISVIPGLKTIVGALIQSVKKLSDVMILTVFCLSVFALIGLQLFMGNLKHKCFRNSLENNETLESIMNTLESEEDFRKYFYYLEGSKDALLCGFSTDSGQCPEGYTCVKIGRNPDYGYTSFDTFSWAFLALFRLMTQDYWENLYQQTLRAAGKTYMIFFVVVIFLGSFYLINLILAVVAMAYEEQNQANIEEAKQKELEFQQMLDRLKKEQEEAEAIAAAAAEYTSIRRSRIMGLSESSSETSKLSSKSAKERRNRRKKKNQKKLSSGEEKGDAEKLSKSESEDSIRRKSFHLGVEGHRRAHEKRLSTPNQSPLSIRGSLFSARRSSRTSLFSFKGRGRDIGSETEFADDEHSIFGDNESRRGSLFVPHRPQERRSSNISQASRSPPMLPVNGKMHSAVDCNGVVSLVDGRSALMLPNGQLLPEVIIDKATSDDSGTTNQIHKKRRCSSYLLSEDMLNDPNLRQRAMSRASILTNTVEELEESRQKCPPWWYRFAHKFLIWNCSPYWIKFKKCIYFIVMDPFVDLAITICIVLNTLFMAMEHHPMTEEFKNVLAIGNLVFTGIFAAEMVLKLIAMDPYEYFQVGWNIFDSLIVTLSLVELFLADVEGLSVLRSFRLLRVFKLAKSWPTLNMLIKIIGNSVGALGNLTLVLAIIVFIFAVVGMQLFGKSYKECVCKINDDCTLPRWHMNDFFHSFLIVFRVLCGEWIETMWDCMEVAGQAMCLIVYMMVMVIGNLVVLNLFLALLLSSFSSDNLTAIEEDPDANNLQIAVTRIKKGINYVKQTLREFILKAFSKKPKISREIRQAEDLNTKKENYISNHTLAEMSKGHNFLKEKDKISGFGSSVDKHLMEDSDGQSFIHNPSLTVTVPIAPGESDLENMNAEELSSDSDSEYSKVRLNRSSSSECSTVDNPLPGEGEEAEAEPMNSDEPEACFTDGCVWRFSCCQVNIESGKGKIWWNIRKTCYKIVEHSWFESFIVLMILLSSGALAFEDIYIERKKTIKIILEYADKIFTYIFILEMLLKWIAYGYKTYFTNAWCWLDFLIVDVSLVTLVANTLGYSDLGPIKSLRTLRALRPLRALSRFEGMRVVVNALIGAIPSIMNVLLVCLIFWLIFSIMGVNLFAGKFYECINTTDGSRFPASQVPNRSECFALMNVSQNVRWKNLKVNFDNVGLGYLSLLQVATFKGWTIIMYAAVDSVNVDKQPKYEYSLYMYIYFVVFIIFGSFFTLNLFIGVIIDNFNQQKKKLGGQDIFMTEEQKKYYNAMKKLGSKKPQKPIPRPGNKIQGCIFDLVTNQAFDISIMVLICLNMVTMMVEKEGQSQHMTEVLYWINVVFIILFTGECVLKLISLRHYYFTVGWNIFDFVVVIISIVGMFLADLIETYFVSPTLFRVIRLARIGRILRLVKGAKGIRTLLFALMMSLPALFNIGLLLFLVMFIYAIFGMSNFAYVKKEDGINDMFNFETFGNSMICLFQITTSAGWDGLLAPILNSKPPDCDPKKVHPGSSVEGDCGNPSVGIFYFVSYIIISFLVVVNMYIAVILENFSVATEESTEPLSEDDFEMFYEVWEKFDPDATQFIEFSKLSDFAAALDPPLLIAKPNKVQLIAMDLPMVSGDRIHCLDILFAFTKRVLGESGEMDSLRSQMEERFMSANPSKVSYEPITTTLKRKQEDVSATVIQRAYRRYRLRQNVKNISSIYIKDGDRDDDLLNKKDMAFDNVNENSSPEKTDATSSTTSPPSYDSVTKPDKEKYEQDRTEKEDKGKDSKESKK

NR2A = target: T12, NR2A (Homo sapiens, UniProt Q12879); test: Ion channel panel (IonWorks Barracuda): NR2A; assay type: cell-based; conditions: 100% = no change, <100% = inhibition
T12 construct: host or cells: HEK293 or CHO
Procedure, shortened: as §1

NR2B = target: T13, NR2B (Homo sapiens, UniProt Q13224); test: Ion channel panel (IonWorks Barracuda): NR2B; assay type: cell-based; conditions: 100% = no change, <100% = inhibition
T13 construct: host or cells: HEK293 or CHO
Procedure, shortened: as §1

TRPA1 = target: T14, TRPA1 (Homo sapiens, UniProt O75762); test: Ion channel panel (IonWorks Barracuda): TRPA1; assay type: cell-based; conditions: 100% = no change, <100% = inhibition
T14 construct: host or cells: HEK293 or CHO
Procedure, shortened: as §1

TRPV1 = target: T15, TRPV1 (Homo sapiens, UniProt Q8NER1); test: Ion channel panel (IonWorks Barracuda): TRPV1; assay type: cell-based; conditions: 100% = no change, <100% = inhibition
T15 construct: host or cells: HEK293 or CHO
Procedure, shortened: as §1

[1] = first of two Nav1.5 columns (probably TP1)
[2] = second of two Nav1.5 columns (probably TP2)
[3] = first of two Nav1.7 columns (probably TP1)
[4] = second of two Nav1.7 columns (probably TP2)

27 (GSACQFWSCNSSCISRGYRQGYCWGIQYKYCQCQ) [compound 27]
Activity of 5HT3a with peptide (percentage of the reference compound) (5HT3a): 78% | Activity of 5HT3a with peptide, expressed as a percentage of the reference compound (5HT3a): 105% | Activity of a3b4 with peptide, expressed as a percentage of the reference compound (α3β4; peptide at 0.2 μM): 98% | Activity of a3b4 with peptide (percentage of the reference compound) (α3β4; peptide at 20 μM): 93% | Activity of a4b2 with peptide, expressed as a percentage of the reference compound (α4β2; peptide at 0.2 μM): 90% | Activity of a4b2 with peptide (percentage of the reference compound) (α4β2; peptide at 20 μM): 82% | Activity of Cav2.1 with peptide, expressed as a percentage of the reference compound (Cav2.1; peptide at 0.2 μM): 108% | Activity of Cav2.1 with peptide (percentage of the reference compound) (Cav2.1; peptide at 20 μM): 103% | Activity of Cav2.2 with peptide, expressed as a percentage of the reference compound (Cav2.2; peptide at 0.2 μM): 105% | Activity of Cav2.2 with peptide (percentage of the reference compound) (Cav2.2; peptide at 20 μM): 116% | Activity of Kv2.1 with peptide, expressed as a percentage of the reference compound (Kv2.1; peptide at 0.2 μM): 91% | Activity of Kv2.1 with peptide (percentage of the reference compound) (Kv2.1; peptide at 20 μM): 94% | Activity of GABA with peptide, expressed as a percentage of the reference compound (GABA; peptide at 0.2 μM): 112% | Activity of GABA with peptide (percentage of the reference compound) (GABA; peptide at 20 μM): 105% | Activity of Nav1.5 with peptide, expressed as a percentage of the reference compound (Nav1.5; [1]): 94% | Activity of Nav1.5 with peptide, expressed as a percentage of the reference compound (Nav1.5; [2]): 93% | Activity of Nav1.5 with peptide (percentage of the reference compound) (Nav1.5; [1]): 104% | Activity of Nav1.5 with peptide (percentage of the reference compound) (Nav1.5; [2]): 109% | Activity of hERG with peptide, expressed as a percentage of the reference compound (hERG; peptide at 0.2 μM): 90% | Activity of hERG with peptide (percentage of the reference compound) (hERG; peptide at 20 μM): 75% | Activity of Kir2.1 with peptide, expressed as a percentage of the reference compound (Kir2.1; peptide at 0.2 μM): 101% | Activity of Kir2.1 with peptide (percentage of the reference compound) (Kir2.1; peptide at 20 μM): 86% | Activity of Kv1.1 with peptide, expressed as a percentage of the reference compound (Kv1.1; peptide at 0.2 μM): 81% | Activity of Kv1.1 with peptide (percentage of the reference compound) (Kv1.1; peptide at 20 μM): 89% | Activity of Kv1.2 with peptide, expressed as a percentage of the reference compound (Kv1.2; peptide at 0.2 μM): 84% | Activity of Kv1.2 with peptide (percentage of the reference compound) (Kv1.2; peptide at 20 μM): 107% | Activity of Kv1.3 with peptide, expressed as a percentage of the reference compound (Kv1.3; peptide at 0.2 μM): 106% | Activity of Kv1.3 with peptide (percentage of the reference compound) (Kv1.3; peptide at 20 μM): 100% | Activity of Nav1.7 with peptide, expressed as a percentage of the reference compound (Nav1.7; [3]): 104% | Activity of Nav1.7 with peptide, expressed as a percentage of the reference compound (Nav1.7; [4]): 114% | Activity of Nav1.7 with peptide (percentage of the reference compound) (Nav1.7; [3]): 97% | Activity of Nav1.7 with peptide (percentage of the reference compound) (Nav1.7; [4]): 97% | Activity of NR2A with peptide, expressed as a percentage of the reference compound (NR2A; peptide at 0.2 μM): 98% | Activity of NR2A with peptide (percentage of the reference compound) (NR2A; peptide at 20 μM): 88% | Activity of NR2B with peptide, expressed as a percentage of the reference compound (NR2B; peptide at 0.2 μM): 79% | Activity of NR2B with peptide (percentage of the reference compound) (NR2B; peptide at 20 μM): 89% | Activity of TRPA1 with peptide, expressed as a percentage of the reference compound (TRPA1; peptide at 0.2 μM): 85% | Activity of TRPA1 with peptide (percentage of the reference compound) (TRPA1; peptide at 20 μM): 114% | Activity of TRPV1 with peptide, expressed as a percentage of the reference compound (TRPV1; peptide at 0.2 μM): 99% | Activity of TRPV1 with peptide (percentage of the reference compound) (TRPV1; peptide at 20 μM): 67%
